Experimental data as given in patent publication US20250034266A1 (ZAI LAB SHANGHAI, published 2025).
Positions count from the first letter of the chain named. Numbers in names are those of the source. Like-named read-outs stand apart in the source and are kept apart here. Values belong to the binder of their own block, whether it stands above or below them.

Tests used:
[1] = molecular target: T1, cynomolgus CCR8 (cynomolgus, UniProt G7NYJ2 1-355); assay: FACS on HEK293-cynomolgus CCR8 cells
T1 construct: whole, on cells
Procedure: (§1) A total of 5×10⁴ cells for each well were seeded in 96-well plates and washed with FACS buffer (DPBD containing 1.5% FBS) for once. Antibodies were prepared with 3-fold serial dilution ranging from 100 nM to 0.0017 nM in FACS buffer. Cells were incubated with 50 μL of diluted antibodies at 4° C. for 1 hour. […] After primary antibody incubation, cells were washed for 3 times by FACS buffer. Then, cells were stained by Alexa Flu647 labeled anti-human IgG secondary antibody (Jackson ImmunoResearch, #109606170) or Alexa Flu647 labeled anti-mouse IgG secondary antibody (Jackson ImmunoResearch, #115605072) at 1:600 dilution in FACS buffer for 0.5 hour at 4° C. After washed for 3 times, Flow cytometry was performed to measure the binding.

[2] = molecular target: T2, human CCR8 (human, UniProt P51685 1-355); assay: FACS, competition with AF647-human CCL1 on CHO-K1-human CCR8 cells
T2 construct: whole, on cells; also called hCCR8

[3] = molecular target: T2, human CCR8; assay: FACS on HEK293-human CCR8 cells
Procedure: as §1

[4] = molecular target: T2, human CCR8; assay: cell-based or functional assay
[5] = molecular target: T2, human CCR8; assay: FACS on HEK293-human CCR8 cells; remark: listed apart in the source
Procedure: (§2) Binding affinities of NG site removed antibodies were determined on human CCR8 and cynomolgus CCR8 overexpression cells. Briefly, CFSE labeled HEK293-human CCR8 cells or CFSE labeled HEK293-cynomolgus CCR8 cells were mixed with HEK293 cells. The mixed ratio was 1:1. A total of 5×10⁴ mixed cells for each well were seeded in 96-well plates and washed by FACS buffer (DPBS containing 1% FBS) once. Cells were incubated by serial diluted purified hybridoma antibodies for 1 hour at 4° C. Antibodies were prepared with 3-fold serial dilution ranging from 100 nM to 0.0017 nM or from 25.3165 nM to 0.0004 nM in FACS buffer. […] After primary antibody incubation, cells were washed by FACS buffer for three times. Then, cells were stained with secondary antibody (Alexa Flu647-conj gated rabbit anti-mouse IgG, Jackson ImmunoResearch, #315606046) at 1:600 dilution in FACS buffer, incubated for 0.5 hour at 4° C. […] FlowJo software was used for analysis. Data was plotted as the logarithm of antibody concentration versus mean fluorescence signals. EC₅₀ values were calculated in GraphPad Prism 8 (GraphPad Software) using a log (agonist) vs. response-Variable slope (4 parameters) curve fit.

[6] = molecular target: T2, human CCR8; assay: cell-based or functional assay; remark: listed apart in the source
[7] = molecular target: T1, cynomolgus CCR8; assay: FACS on HEK293-cynomolgus CCR8 cells; remark: listed apart in the source
Procedure: as §2

[8] = molecular target: T2, human CCR8; assay: FACS, competition with AF647-human CCL1 on HEK293-human CCR8 cells
Procedure: (§3) Antibodies were prepared with 3-fold serial dilution ranging from 200 nM to 0.01 nM in FACS buffer. Then, cells were washed by FACS buffer for three times after incubation. […] FlowJo software was used for analysis. Data was plotted as the logarithm of antibody concentration versus mean fluorescence signals. IC₅₀ values were determined in GraphPad Prism 8 (GraphPad Software) using a log(agonist) vs. response-Variable slope (4 parameters) curve fit.

[9] = molecular target: T2, human CCR8; assay: FACS, competition with AF647-human CCL1 on CHO-K1-human CCR8 cells; remark: listed apart in the source
Procedure: Blocking curves were generated to rank the blocking activities of PTM sites removed antibodies. Briefly, a total of 5×10⁴ CHO-K1-human CCR8 cells for each well were seeded in 96-well plate. Cells were incubated by series diluted purified hybridoma antibodies and 4 nM AF647 labeled human CCL1 (Almac, #CAF-07) for 1 hour at 4° C. Antibodies were prepared with 3-fold serial dilution ranging from 100 nM to 0.0051 nM in FACS buffer. Then, cells were washed by FACS buffer for three times after incubation. […] FlowJo software was used for analysis. Data was plotted as the logarithm of antibody concentration versus mean fluorescence signals. IC₅₀ values were determined in GraphPad Prism 8 (GraphPad Software) using a log(agonist) vs. response-Variable slope (4 parameters) curve fit.

[10] = molecular target: T2, human CCR8; assay: as above; remark: listed apart in the source
Procedure: as §3

[11] = molecular target: T2, human CCR8; assay: FACS of purified scFv on CHO-K1-human CCR8 cells
[12] = molecular target: T2, human CCR8; assay: FACS on HEK293-human CCR8 cells; remark: listed apart in the source
[13] = molecular target: T2, human CCR8; assay: FACS, competition with AF647-human CCL1 on CHO-K1-human CCR8 cells; remark: listed apart in the source
[14] = molecular target: T1, cynomolgus CCR8; assay: FACS on ExpiCHO-S-cynomolgus CCR8 cells

T2 sequence (P51685 whole entry): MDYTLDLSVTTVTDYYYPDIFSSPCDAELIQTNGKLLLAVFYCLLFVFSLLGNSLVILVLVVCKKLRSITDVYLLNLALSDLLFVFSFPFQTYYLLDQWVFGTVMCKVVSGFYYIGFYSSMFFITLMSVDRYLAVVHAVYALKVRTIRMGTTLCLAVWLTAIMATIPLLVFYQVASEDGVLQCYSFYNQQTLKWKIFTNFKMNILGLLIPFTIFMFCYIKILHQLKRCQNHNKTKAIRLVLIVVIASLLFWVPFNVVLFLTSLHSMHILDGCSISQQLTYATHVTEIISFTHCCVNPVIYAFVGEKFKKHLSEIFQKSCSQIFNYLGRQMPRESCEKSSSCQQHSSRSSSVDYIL
T1 sequence (G7NYJ2 entry or part of it): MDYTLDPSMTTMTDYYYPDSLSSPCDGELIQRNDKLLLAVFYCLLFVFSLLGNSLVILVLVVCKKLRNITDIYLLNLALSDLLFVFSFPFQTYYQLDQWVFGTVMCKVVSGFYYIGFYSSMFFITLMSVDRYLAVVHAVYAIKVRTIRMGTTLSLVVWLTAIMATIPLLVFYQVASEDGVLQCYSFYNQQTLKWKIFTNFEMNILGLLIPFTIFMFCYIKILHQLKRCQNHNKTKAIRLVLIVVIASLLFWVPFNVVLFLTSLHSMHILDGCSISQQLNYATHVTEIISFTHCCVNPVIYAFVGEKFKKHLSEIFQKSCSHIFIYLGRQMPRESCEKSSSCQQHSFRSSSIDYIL

B1: Hu149-4 (antibody, human IgG1, V domains shown)
VH: EVQLVESGGGLVQPGGSLKLSCAASGFTFNTYAMNWVRQASGKGLEWVGRIRSKSNFYATYYAASVKGRFTISRDDSKNTAYLQMNSLKTEDTAVYYCTRGRDYGSSYAMDYWGQGTLVTVSS
VL: DIVMTQSPLSLPVTPGEPASISCRSSKSLLHSNANTYLYWFLQKPGQSPQLLIYRMSNLASGVPDRFSGSGSGTDFTLKISRVEAEDVGVYYCMQHLEYPLTFGGGTKVELK
notes: humanized, human IgG1; also called Hu149-4 HuIgG1
- EC50 [1]: 0.081 nM
- Max MFI [1]: 26500 MFI
- IC50 [2]: 0.137 nM
- Max Inhibition (%) [2]: 99.5%
- EC50 [3]: 0.0518 nM
- Max MFI [3]: 7470 MFI
- EC50, ADCC with human PBMC [4]: 0.002 nM
- Max specific lysis (%), ADCC with human PBMC [4]: 8.76%

B2: 149F2C10 (antibody, V domains shown)
VH: EVQLVESGGGLVQPKGSLKLSCAASGFTFNTYAMNWVRQAPGKGLEWVARIRSKSNFYATYYADSVKDRFTISRDDSQDMLYLQMNILKTEDTAIYYCVRGRDYGSSYAMDYWGQGTSVTVSS
VL: DIVMTQAAPSVPVTPGESVSISCRSSKSLLHSNGNTYLYWFLQRPGQSPQLLIYRMSNLASGVPDRFSGSGSGTAFTLRISRVEAEDVGVYYCMQHLEYPLTFGAGTKLELK
notes: purified murine hybridoma antibody
- EC50 [5]: 0.173 nM
- Max MFI [5]: 1930 MFI
- IC50, inhibition of CCL1 induced β-Arrestin recruitment [6]: 0.61 nM
- Max Inhibition (%), CCL1 induced β-Arrestin recruitment [6]: 32%
- EC50 [7]: 0.145 nM
- Max MFI [7]: 3440 MFI
- IC50 [8]: 0.733 nM
- Max Inhibition (%) [8]: 96.4%
- IC50 [9]: 0.97 nM
- Max Inhibition (%) [9]: 79.4%
- IC50 [10]: 0.917 nM
- Max Inhibition (%) [10]: 98%

B3: 153D4G2 (antibody, V domains shown)
VH: B2 VH
VL: B2 VL
notes: as for B2
- IC50, inhibition of CCL1 induced β-Arrestin recruitment [6]: 6.57 nM
- Max Inhibition (%), CCL1 induced β-Arrestin recruitment [6]: 33.8%
- IC50 [8]: 0.836 nM
- Max Inhibition (%) [8]: 96.2%
- IC50 [10]: 0.661 nM
- Max Inhibition (%) [10]: 98.2%

B4: 164G10D6 (antibody, V domains shown)
VH: B2 VH
VL: B2 VL
notes: as for B2
- IC50, inhibition of CCL1 induced β-Arrestin recruitment [6]: 0.46 nM
- Max Inhibition (%), CCL1 induced β-Arrestin recruitment [6]: 42%
- IC50 [8]: 0.599 nM
- Max Inhibition (%) [8]: 96.6%
- IC50 [10]: 0.602 nM
- Max Inhibition (%) [10]: 97.9%

B5: 160D1E3 (antibody, V domains shown)
VH: B2 VH with F57Y, I87N
VL: B2 VL
notes: as for B2
- IC50, inhibition of CCL1 induced β-Arrestin recruitment [6]: 1.04 nM
- Max Inhibition (%), CCL1 induced β-Arrestin recruitment [6]: 41.3%
- IC50 [8]: 0.891 nM
- Max Inhibition (%) [8]: 100%
- IC50 [10]: 0.728 nM
- Max Inhibition (%) [10]: 98%

B6: 149-9 scFv (WT) (scFv)
scFv: EVQLVESGGGLVQPGGSLKLSCAASGFTFNTYAMNWVRQASGKGLEWVGRIRSKSNFYATAYAASVKGRFTISRDDSKNTAYLQMNSLKTEDTAVYYCTRGRDYGSSYAMDYWGQGTLVTVSSGGGGSGGGGSGGGGSDIVMTQSPLSLPVTPGEPASISCRSSKSLLHSNANTYLYWFLQKPGQSPQLLIYRMSNLASGVPDRFSGSGSGTDFTLKISRVEAEDVGVYYCMQHLEYPLTFGGGTKVELK
notes: VH-VL format with (G4S)3 linker
- GeoMean AF647 (RL1-H) of CHO-K1-human CCR8 / GeoMean AF647 (RL1-H) in H12(NC) [11]: 2.2

B7: VH-PH5-P3E3 (scFv)
scFv: B6 scFv with D103E, S107A
- GeoMean AF647 (RL1-H) of CHO-K1-human CCR8 / GeoMean AF647 (RL1-H) in H12(NC) [11]: 3.6

B9: VH-PH5-P5F7 (scFv)
scFv: B6 scFv with D103E, S106R
- GeoMean AF647 (RL1-H) of CHO-K1-human CCR8 / GeoMean AF647 (RL1-H) in H12(NC) [11]: 7.1

B10: VH-PH5-P2B6(LCDR3) (scFv)
scFv: B6 scFv with E236K
- GeoMean AF647 (RL1-H) of CHO-K1-human CCR8 / GeoMean AF647 (RL1-H) in H12(NC) [11]: 4.6

B15: CM348 (antibody, V domains shown)
VH: QVQLVETGGGLVRPGNSLKLSCVTSGFSFSNYRMHWLRQPPGKRLEWIAVITVKSDNYGANYAESVKGRFTISRDDSKSSVYLQMNRLREEDTATYYCSSLGRVAYWGQGTLVTVSA
VL: DIVMTQSQKFMFTSVGDRVSVTCKASQNVDTNVVWYQQKPGQSPKALIYSASSRYSGVPDRFTGSGSGTDFTLTISNVQSEDLAEYFCQQHNSFPLTFGAGTKLELI
notes: CM348 is not defined in words; also called CM348 HuIgG1; parental antibody CM348
- EC50 [12]: 0.091 nM
- Max MFI [12]: 5050 MFI
- IC50 [13]: 0.17 nM
- Max Inhibition (%) [13]: 96.4%
- EC50 [14]: 65.3 nM
- Max MFI [14]: 238 MFI
- EC50, ADCC with human PBMC [4]: 0.41 nM
- Max specific lysis (%), ADCC with human PBMC [4]: 13.1%

B16: 204A2G12 (antibody, V domains shown)
VH: DVQLQESGPGLVKPSQSLSLTCSVTGYSITSGYYWNWIRQFPGNKLEWMGYISYDGTNNYNPSLKNRISITRDTSKNQFFLKLTSVTTEDTATYYCARQVGLRRAWFAYWGQGTLVTVSA
VL: DIQMTQSSSFLSVSLGGRVTITCKASDHINYWLAWYQQKPGNAPRLLISGATSLETGVPSRFSGSGSGKDYTLTITSLQNEDVATYYCHQYWSTPTFGSGTKLEIK
notes: as for B2
- IC50, inhibition of CCL1 induced β-Arrestin recruitment [6]: 1.7 nM
- Max Inhibition (%), CCL1 induced β-Arrestin recruitment [6]: 30.9%
- IC50 [8]: 1.64 nM
- Max Inhibition (%) [8]: 87.6%
- IC50 [10]: 2.73 nM
- Max Inhibition (%) [10]: 95%

More lines, now with the values ahead:

- GeoMean AF647 (RL1-H) of CHO-K1-human CCR8 / GeoMean AF647 (RL1-H) in H12(NC) [11]: 10.4
B8: VH-PH5-P7B9 (scFv)
scFv: B6 scFv with D103E

- GeoMean AF647 (RL1-H) of CHO-K1-human CCR8 / GeoMean AF647 (RL1-H) in H12(NC) [11]: 2.9
B11: VL-PH5-P3E4 (scFv)
scFv: B6 scFv with E236R

- GeoMean AF647 (RL1-H) of CHO-K1-human CCR8 / GeoMean AF647 (RL1-H) in H12(NC) [11]: 3.2
B12: VL-PH5-P5D9 (scFv)
scFv: B6 scFv with E236S

- GeoMean AF647 (RL1-H) of CHO-K1-human CCR8 / GeoMean AF647 (RL1-H) in H12(NC) [11]: 6
B13: VH-PH7-P2H12 (scFv)
scFv: B6 scFv with S41P
notes: also called VH-PH7-P2H12(S41P)

- GeoMean AF647 (RL1-H) of CHO-K1-human CCR8 / GeoMean AF647 (RL1-H) in H12(NC) [11]: 10.8
B14: VH-PH5-P9E9 (scFv)
scFv: B6 scFv with R102K, D103E
